From IntAct's records for PubMed 16368681 come the findings set out here.

B1: Protein disulfide-isomerase (Saccharomyces cerevisiae), P17967 (parent)
chain: MKFSAGAVLSWSSLLLASSVFAQQEAVAPEDSAVVKLATDSFNEYIQSHDLVLAEFFAPWCGHCKNMAPEYVKAAETLVEKNITLAQIDCTENQDLCMEHNIPGFPSLKIFKNSDVNNSIDYEGPRTAEAIVQFMIKQSQPAVAVVADLPAYLANETFVTPVIVQSGKIDADFNATFYSMANKHFNDYDFVSAENADDDFKLSIYLPSAMDEPVVYNGKKADIADADVFEKWLQVEALPYFGEIDGSVFAQYVESGLPLGYLFYNDEEELEEYKPLFTELAKKNRGLMNFVSIDARKFGRHAGNLNMKEQFPLFAIHDMTEDLKYGLPQLSEEAFDELSDKIVLESKAIESLVKDFLKGDASPIVKSQEIFENQDSSVFQLVGKNHDEIVNDPKKDVLVLYYAPWCGHCKRLAPTYQELADTYANATSDVLIAKLDHTENDVRGVVIEGYPTIVLYPGGKKSESVVYQGSRSLDSLFDFIKENGHFDVDGKALYEEAQEKAAEEADADAELADEEDAIHDEL
B2: Protein disulfide-isomerase (Saccharomyces cerevisiae), P17967 (parent)
chain: B1 chain
partner: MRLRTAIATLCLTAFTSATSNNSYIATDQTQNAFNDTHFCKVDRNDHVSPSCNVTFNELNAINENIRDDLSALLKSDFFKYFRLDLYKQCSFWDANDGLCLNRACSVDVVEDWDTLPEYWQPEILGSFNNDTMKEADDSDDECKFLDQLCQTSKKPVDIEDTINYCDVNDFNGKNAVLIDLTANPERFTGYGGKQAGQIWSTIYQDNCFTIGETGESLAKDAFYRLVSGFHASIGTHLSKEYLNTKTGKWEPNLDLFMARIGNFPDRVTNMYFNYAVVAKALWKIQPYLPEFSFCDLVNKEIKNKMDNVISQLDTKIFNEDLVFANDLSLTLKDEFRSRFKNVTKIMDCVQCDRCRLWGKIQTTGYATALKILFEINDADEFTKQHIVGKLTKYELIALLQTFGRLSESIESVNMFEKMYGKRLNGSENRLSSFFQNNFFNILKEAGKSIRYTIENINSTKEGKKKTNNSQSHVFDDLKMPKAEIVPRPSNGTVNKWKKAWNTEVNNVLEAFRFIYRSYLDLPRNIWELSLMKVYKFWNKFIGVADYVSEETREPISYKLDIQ

Variants of B1 are the subject of one assay. The conditions noted are these: with rnas1_bovin RNASE1, P61823.
rnas1_bovin RNASE1, P61823, sequence (P61823 whole entry): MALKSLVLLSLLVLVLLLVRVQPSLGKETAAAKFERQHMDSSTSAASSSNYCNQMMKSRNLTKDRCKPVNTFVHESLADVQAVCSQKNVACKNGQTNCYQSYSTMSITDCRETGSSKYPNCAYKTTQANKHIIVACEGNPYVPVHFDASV
On to C61A;C64A, for which the “effect of a mutation on the interaction” value is reported as “decreasing interaction”.
For C406A;C409A, the “effect of a mutation on the interaction” value was “decreasing interaction”.

The variants in another assay derive from B2. The note with it: with ero1_yeast ERO1, Q03103.
With C406A;C409A, the “effect of a mutation on the interaction” value is “decreasing interaction”.
Still for that read-out and setting: the entry for C61A;C64A is “decreasing interaction”.
